{"source": "patent US20240299546A1", "binders": {"B1": {"name": "A3A TCR (TCR, V domains shown)", "V domain 1": "KQEVTQIPAALSVPEGENLVLNCSFTDSAIYNLQWFRQDPGKGLTSLLLVRPYQREQTSGRLNASLDKSSGRSTLYIAASQPGDSATYLCAVRPGGAGSYQLTFGKGTKLSVIP", "V domain 2": "KAGVTQTPRYLIKTRGQQVTLSCSPISGHRSVSWYQQTPGQGLQFLFEYFSETQRNKGNFPGRFSGRQFSNSRSEMNVSTLELGDSALYLCASSPNMADEQYFGPGTRLTVTE"}}, "key": {"[1]": {"target": "HLA-A1-TITIN pMHC (human)", "assay": "SPR, biotinylated HLA-A1-TITIN on streptavidin chip, soluble TCR flowed"}, "[2]": {"target": "HLA-A1-MAGE-A3 pMHC (human)", "assay": "SPR, biotinylated HLA-A1-MAGE-A3 on streptavidin chip, soluble TCR flowed"}}, "data": [{"binder": "B1", "values": [{"measurement": "Kd", "setting": "[1]", "result": 7.7, "unit": "µM"}, {"measurement": "Kd", "setting": "[2]", "result": 1.24, "unit": "µM"}]}]}
